In patent US6730296B1:

Molecular target: fusin/CXCR4 receptor (human) (UniProt P61073)

- anti-fusin antibody staining of Jurkat cells after 3-hour incubation at 37 degrees C, Median Channel (Median Channel): 22.3
Substance: purified human SDF-1β chemokine, prepared in E. coli and containing an N-terminal methionine residue (from UniProt P48061) (ligand)
